# Laboratory results reported in the nanobody polyreactivity screen of Harvey et al. (2022).
# Assay: yeast display, Sf9 membrane polyspecificity reagent, FACS + sequencing; frameworks hold sequencing errors
# In short: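 Galactose-induced (36–48 hours) yeast carrying a synthetic nanobody display library were exposed to 10% biotinylated, detergent-solubilized Sf9 membrane reagent at 4 °C for 1 hour. FACS followed streptavidin microbead enrichment, using low and high (top ~1%) gates for expression (anti-HA) and reagent binding (streptavidin). Colony PCR, MiSeq 2 × 250 sequencing and CDR-length filtering followed. Labels for polyreactivity reflect the gate of origin.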
row,Sequence,polyreactivity (PSR sort gate)
1,QVQLVESGGGLVQAGGSLRLSCAASGSTSPIYAMGWYRQAPGKERELVAAINGVGSTNYADSVKGRFTISRDNAKNTVYLQMNSLKPEDTAVYYCNTRYSPGYQGTEVDYWGKGTQVTVSS,low polyreactivity
2,QVQLVESGGGLVQAGGSLRLSCAASGSTSPNAMGWYRQAPGKERELVAAIWSGGTYYADSVKGRFTISRDNAKNTVYLQMNSLKPEDTAVYYCAVTGVYRGFRYGYWGQGTQVTVSS,low polyreactivity
3,QVQLVESGGGLVQAGGSLRLSCAASGSTSPRNAMGWYRQAPGKERELVAAISSGGRTNYADSVKARFTISRDNAKNTDYLQMNSLKREDTAVYYCAAEVQSTYWGQGTQVTVSS,low polyreactivity
4,QVQLVESGGGLVQAGGSLRLSCAASGSTSQRNAMGWYRQAPGKERELVAAISRSGGSTSYADSVKGRFTISRDNAKNTVYLQMNSLKPEDTAVYYCNTDRRIYRVWYYYWGQGTQVTVSS,high polyreactivity
5,QVQLVESGGGLVQAGGSLRLSCAASGSTSQRNAMGWYRQAPGKERELVAGITTSGGRTYYADSVKGRFTISRDNAKNTVYLQMNSLKPEDTAVYYCAARTQIWKYRGYYSWGQGTQVTVSS,high polyreactivity
6,QVQLVESGGGLVQAGGSLRLSCAASGSTSRGNAMGWYRQAPGKERELVAAISYIGGTTYYADSVKGRFTISRDNAKNTVYLQMNSLKPEDTAVYYCAADLYRSILKPDYDYWGQGTQVTVSS,high polyreactivity
7,QVQLVESGGGLVQAGGSLRLSCAASGSTSRLNAMGWYRQAPGKERELVAAISGSGGRTYYADSVKGRFTISRDTAKTTVYLQMNSQKPEDTAVYYCNAAYSAKVHPEMYYWGPGTQVTVSS,high polyreactivity
8,QVQLVESGGGLVQAGGSLRLSCAASGSTSSDYAMGWYRQPPGKERELVASISRSGGSTNYADSVKGRFTISRDNAKNTVYLQMNSLKPEDTAVYYCAARQSYRYYWGKGTQVTVSS,high polyreactivity
9,QVQLVESGGGLVQAGGSLRLSCAASGSTSSLYTMGWYRQAPGKERELVAAITRSGGGTYYADSVKGRFTSSRDNAKNTVYLQMNSLKPEDTAVYYCAAVQSEGRMGYWGQGTQVTVSS,high polyreactivity
10,QVQLVESGGGLVQAGGSLRLSCAASGSTSSTYSMGWYRQAPGKERELVATINWDGASTYYADSVKGRFTISRDNAKNTVYLQMNSLIPEDTAVYYCAAQSGAVHFLEDDYWGHGTQVTVSS,low polyreactivity
11,QVQLVESGGGLVQAGGSLRLSCAASGSTSSVYAMGWYRQAPGKEREFVASITRRTGITFYADSVKGRFTISRDNAKNTVYLQMNSLKPEDTAVYYCATRGGYPKGYGYLAFNYWGQGTQVTVSS,high polyreactivity
12,QVQLVESGGGLVQAGGSLRLSCAASGSTSTTYAMGWYRQAPWKERELVAAISWGGTRTYYADSVKGRFTISRDNAKNTVYLQMNSLKPEDTAVYYCNAGRRSSSGHYGYNYWGQGTQVTVSS,high polyreactivity
13,QVQLVESGGGLVQAGGSLRLSCAASGSTSVVNAMGWSRQAPGKERELVAVITISAVSTYYADSVKGRFTISRDNAKNTVYLQMNSLKPEDTAVYYCAARSYVIYDNFEYDYWGQGTQVTVSS,high polyreactivity
14,QVQLVESGGGLVQAGGSLRLSCAASGSTSYDNAMGWYRQAPGKERELDASISSDGSTNYADSVKGRFTISRDNAKNTVYLQMNSLKPEDTAVYYCNVEVTRGLSHDPEYDYWGQGTQVTVSS,low polyreactivity
15,QVQLVESGGGLVQAGGSLRLSCAASGSTSYNAMGWYRQPPGKERELVAAITSSGGRTYYADSVKGRFTISRDNAKNTVYLQMNSLKPEDTAVYYCNAPTSARRQGKDYGYWGQGTQVTVSS,high polyreactivity
16,QVQLVESGGGLVQAGGSLRLSCAASGSTSYPYAMGWYIQAPGQERELVATINYSGARTYYADSVKGRFTISRDNAKNTVYFQMNSLKPEDTAVYYCAATVYWRLEHDYWGQGTQVTVSS,low polyreactivity

row,Sequence,polyreactivity (PSR sort gate)
1,QVQLVESGGGLVQAGGSLRLSCAASGSTSYRNAMGWYRQAPGIEREFVAAISWSGGSTYYADSVKGRFTISRDNAKNTVYLQMNSLKPEDTAVYYCATTVTQWGQGTQVTVSS,low polyreactivity
2,QVQLVESGGGLVQAGGSLRLSCAASGSTSYRYAMGWYRQAPGKERELVAAIPWISDSTYYADSVKGRFTISRDNAKNTVVLQMNSLKQEDTAVYYCNTDPLVTTVTFNYWGQGTQVTVSS,low polyreactivity
3,QVQLVESGGGLVQAGGSLRLSCAASGSTSYYNAMGWYRQAPGKERELVAAISYSGGRTYYADSVKGRFTISRDNAKNTVYLQMNSLKPEDTAVYYCAKTFRGQPYLRYRYYYWGQGTQVTVSS,high polyreactivity
4,QVQLVESGGGLVQAGGSLRLSCAASGSTVFKNTMGWYRQAPGKEREFVAAIRWSTSRTYYADSVKGRFTISRDNAKNTVYLQMNSLKPEDTAVSYCNAGTSLSRRYPEDYYWGQGTLVTVSS,high polyreactivity
5,QVQLVESGGGLVQAGGSLRLSCAASGSTVGSYAMGWYRQAPGKERELVAAITLRTDSTYYADSVKGRFTISRDNAKNTVYLQMNSLKPEETAVYYCARRYRYGYDYWGQGTQVTVSS,low polyreactivity
6,QVQLVESGGGLVQAGGSLRLSCAASGSTVGVNAMGWYRQAPGKERELVAALSNGDNTYYADSVKGRFTISRDHAKNTVYLQMNSLKPEDTAVYYCAADQYWSWIYYPVVESDYWGQGTQVTVSS,low polyreactivity
7,QVQLVESGGGLVQAGGSLRLSCAASGSTVKYAMGWYRQAPGKERELVAAISSRGGSTSYADSVNGRFTISRDNAKNTVYLQMNSLKPEDTAVYSCARRIRQQRFGGNYWGQGTQVTVSS,high polyreactivity
8,QVQLVESGGGLVQAGGSLRLSCAASGSTVVYNVMGWYRQAPGKEREVVAAFRWRGGSTYADSVKGRFTISRDNAKNTVYLQMNCLKPEDTAVYYCAAGIPRYWYAGHYDYWGQGTQVTVSS,low polyreactivity
9,QVQLVESGGGLVQAGGSLRLSCAASGSTVWWYAMGWDRQAPRKERELVAVITRSSDSTSYADSVKGRFTLSRDNAKNTVFLQMNSLKPEDTAVYYCAALYRSYRYEYYYWGQATQVTVSS,high polyreactivity
10,QVQLVESGGGLVQAGGSLRLSCAASGSTVYAYAMGWYRQAPGKERELVAAIDSGGSTYYADSVKGRFTISRDNAKNTVNLQMNSLKPEDTAVYYCAVRHRYTRAYWGRDYWGQGTQVTVSS,low polyreactivity
11,QVQLVESGGGLVQAGGSLRLSCAASGSTYDPNAMGRYRQAPGKERELVAAISWSGGSTYYADSVKGRFTISRDNAKNTVYLQMYSLKPEDTAVSYCNAQFYDSYSYTNDYWGQGTLVTVSS,low polyreactivity
12,QVQLVESGGGLVQAGGSLRLSCAASGSTYEYNAMGWSRQAPGKERELVASSTNYADSVKGRFTISRDNAKNTVYLQMNSLKPEDTAVYYCAREQCVNRNHDYWGQGTQVTVSS,low polyreactivity
13,QVQLVESGGGLVQAGGSLRLSCAASGSTYEYNAMGWYRQAPGKERELVAGISSGGSTYYADSVKGRFTISRDNAKNTVYLQMNSLKPEDTAVYYCATSEASVATWDRYTELDYWGQGSQVTVSS,low polyreactivity
14,QVQLVESGGGLVQAGGSLRLSCAASGSTYGDNAMGWYRQAPGKERELVAAISSGGGSTYYADSVKGRFTISRDNAKNTVYLQMYSLNPEDTAVYYCGADGTLTLYRYILDYWGQGYQVTVSS,low polyreactivity
15,QVQLVESGGGLVQAGGSLRLSCAASGSTYGGNAMGWYRQAPGKERELVAAISRSGSRTYYADSVKGRFTISRDNAKNTVYLQMNSLKPEDTAVYYCAARRWVWTVRYNYWGQGTQVTVSS,high polyreactivity
16,QVQLVESGGGLVQAGGSLRLSCAASGSTYGRNAMGWYRQATGKERELVAAINSGGGTYYADSVKGRFTISRDNAKNTVYLQMYSLKPEDTAVYYCAAARRYGKYDYWGQGTQVTVSS,low polyreactivity
